Measurements reported in article PMC13193609, “Polyphosphate modulates the stress-responsive formation of functional RNA-protein condensates in bacteria and mammalian cells”.

Target: Hfq (Escherichia coli, UniProt P0A6X3 1-102)
Assay: EMSA; 25 uM Hfq with 0.5-4 uM FAM-rA30, no polyP; Condensates: 20 mM HEPES pH 7.0, 50 mM NaCl, no crowder; EMSA buffer and temperature not given in the material
Conditions: protein: recombinant; chain copies: 6; label: FAM (5' as printed FAM-(rA)30); single strand

Chain of Hfq (P0A6X3 whole entry): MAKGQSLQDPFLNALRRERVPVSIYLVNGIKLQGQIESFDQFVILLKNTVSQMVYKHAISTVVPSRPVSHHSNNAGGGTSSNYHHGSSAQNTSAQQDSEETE

B1: FAM-rA30 (ssRNA)
RNA: AAAAAAAAAAAAAAAAAAAAAAAAAAAAAA
binding result: binds
